T1: Rv0081 (Mycobacterium tuberculosis H37Rv, UniProt P9WMI7 1-114)
T1 sequence: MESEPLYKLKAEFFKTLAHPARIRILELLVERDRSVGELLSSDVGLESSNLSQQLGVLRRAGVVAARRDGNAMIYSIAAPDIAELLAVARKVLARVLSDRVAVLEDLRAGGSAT

B1: Fragment 4 (-203 to -154) (dsDNA)
DNA 1: GGATGGTCATAGTGGCGTCGGGCGCCAGGCCTGCGCGGGCACACGCGGTGCGG
DNA 2: CCGCACCGCGTGTGCCCGCGCAGGCCTGGCGCCCGACGCCACTATGACCATCC
B2: Fragment 2 (-103 to -54) (dsDNA)
DNA 1: GTATGGGCTCACCGAGATCAGGCTCGTCACGATCGCCCGCACTGCTGGCGGCT
DNA 2: AGCCGCCAGCAGTGCGGGCGATCGTGACGAGCCTGATCTCGGTGAGCCCATAC
B3: Fragment c (-54 to -9) (dsDNA)
DNA 1: CACATGTACCCAGTGTTAACCTTCTAGTGCACTAGAAGGTCAAGGG
DNA 2: CCCTTGACCTTCTAGTGCACTAGAAGGTTAACACTGGGTACATGTG
B4: FAM-Fragment 3 (dsDNA)
DNA 1: TGTCGATGGTTGTTCTCATCTGGTAACTCCTTTCCGCAGGCCGCAATTCAGCG
DNA 2: CGCTGAATTGCGGCCTGCGGAAAGGAGTTACCAGATGAGAACAACCATCGACA
B5: Fragment 3 (-153 to -104) (dsDNA)
DNA 1: B4 DNA 1
DNA 2: B4 DNA 2
B6: Fragment 6 (-73 to -40) (dsDNA)
DNA 1: CGCCCGCACTGCTGGCGGCTCACATGTACCCAGT
DNA 2: ACTGGGTACATGTGAGCCGCCAGCAGTGCGGGCG
B7: Fragment 5 (-40 to -10) (dsDNA)
DNA 1: GTTAACCTTCTAGTGCACTAGAAGGTCAAG
DNA 2: CTTGACCTTCTAGTGCACTAGAAGGTTAAC
B8: Fragment a (-54 to -25) (dsDNA)
DNA 1: CACATGTACCCAGTGTTAACCTTCTAGTGC
DNA 2: GCACTAGAAGGTTAACACTGGGTACATGTG
B9: Fragment b (-54 to -17) (dsDNA)
DNA 1: CACATGTACCCAGTGTTAACCTTCTAGTGCACTAGAAG
DNA 2: CTTCTAGTGCACTAGAAGGTTAACACTGGGTACATGTG
B10: Fragment 1 (-53 to 0) (dsDNA)
DNA 1: CACATGTACCCAGTGTTAACCTTCTAGTGCACTAGAAGGTCAAGGGGAGTCGC
DNA 2: GCGACTCCCCTTGACCTTCTAGTGCACTAGAAGGTTAACACTGGGTACATGTG
B11: FAM-Fragment 1 (dsDNA)
DNA 1: B10 DNA 1
DNA 2: B10 DNA 2

Columns and labels:
[1] = target: T1, Rv0081; assay: EMSA; 576 ng Rv0081; details: protein: recombinant; tags: His-tag (pET28b); chain copies: 2; blunt
[2] = target: T1, Rv0081; assay: EMSA; details: protein: recombinant; tags: His-tag (pET28b); chain copies: 2; label: FAM; blunt
[3] = target: T1, Rv0081; assay: EMSA; 288-576 ng Rv0081; details: protein: recombinant; tags: His-tag (pET28b); chain copies: 2; blunt

Row | Binder | binding result [1] | further results
1 | B1 | no binding | 
2 | B2 | no binding | 
3 | B3 | no binding | 
4 | B4 |  | binding result [2]: binds
5 | B5 | binds | 
6 | B6 |  | binding result [3]: no binding
7 | B7 |  | binding result [3]: no binding
8 | B8 | no binding | 
9 | B9 | no binding | 
10 | B10 | binds | 
11 | B11 |  | binding result [2]: binds
